According to IntAct's records for PubMed 25117710:

B1: Protein C-ets-1 (Homo sapiens), P14921-1 (parent)
chain: MKAAVDLKPTLTIIKTEKVDLELFPSPDMECADVPLLTPSSKEMMSQALKATFSGFTKEQQRLGIPKDPRQWTETHVRDWVMWAVNEFSLKGVDFQKFCMNGAALCALGKDCFLELAPDFVGDILWEHLEILQKEDVKPYQVNGVNPAYPESRYTSDYFISYGIEHAQCVPPSEFSEPSFITESYQTLHPISSEELLSLKYENDYPSVILRDPLQTDTLQNDYFAIKQEVVTPDNMCMGRTSRGKLGGQDSFESIESYDSCDRLTQSWSSQSSFNSLQRVPSYDSFDSEDYPAALPNHKPKGTFKDYVRDRADLNKDKPVIPAAALAGYTGSGPIQLWQFLLELLTDKSCQSFISWTGDGWEFKLSDPDEVARRWGKRKNKPKMNYEKLSRGLRYYYDKNIIHKTAGKRYVYRFVCDLQSLLGYTPEELHAMLDVKPDADE
B2: Protein C-ets-2 (Homo sapiens), P15036 (parent)
chain: MNDFGIKNMDQVAPVANSYRGTLKRQPAFDTFDGSLFAVFPSLNEEQTLQEVPTGLDSISHDSANCELPLLTPCSKAVMSQALKATFSGFKKEQRRLGIPKNPWLWSEQQVCQWLLWATNEFSLVNVNLQRFGMNGQMLCNLGKERFLELAPDFVGDILWEHLEQMIKENQEKTEDQYEENSHLTSVPHWINSNTLGFGTEQAPYGMQTQNYPKGGLLDSMCPASTPSVLSSEQEFQMFPKSRLSSVSVTYCSVSQDFPGSNLNLLTNNSGTPKDHDSPENGADSFESSDSLLQSWNSQSSLLDVQRVPSFESFEDDCSQSLCLNKPTMSFKDYIQERSDPVEQGKPVIPAAVLAGFTGSGPIQLWQFLLELLSDKSCQSFISWTGDGWEFKLADPDEVARRWGKRKNKPKMNYEKLSRGLRYYYDKNIIHKTSGKRYVYRFVCDLQNLLGFTPEELHAILGVQPDTED

Variants of: B1
Conditions: with cop1_human COP1, Q8NHY2
Target sequence in this assay (Q8NHY2 whole entry): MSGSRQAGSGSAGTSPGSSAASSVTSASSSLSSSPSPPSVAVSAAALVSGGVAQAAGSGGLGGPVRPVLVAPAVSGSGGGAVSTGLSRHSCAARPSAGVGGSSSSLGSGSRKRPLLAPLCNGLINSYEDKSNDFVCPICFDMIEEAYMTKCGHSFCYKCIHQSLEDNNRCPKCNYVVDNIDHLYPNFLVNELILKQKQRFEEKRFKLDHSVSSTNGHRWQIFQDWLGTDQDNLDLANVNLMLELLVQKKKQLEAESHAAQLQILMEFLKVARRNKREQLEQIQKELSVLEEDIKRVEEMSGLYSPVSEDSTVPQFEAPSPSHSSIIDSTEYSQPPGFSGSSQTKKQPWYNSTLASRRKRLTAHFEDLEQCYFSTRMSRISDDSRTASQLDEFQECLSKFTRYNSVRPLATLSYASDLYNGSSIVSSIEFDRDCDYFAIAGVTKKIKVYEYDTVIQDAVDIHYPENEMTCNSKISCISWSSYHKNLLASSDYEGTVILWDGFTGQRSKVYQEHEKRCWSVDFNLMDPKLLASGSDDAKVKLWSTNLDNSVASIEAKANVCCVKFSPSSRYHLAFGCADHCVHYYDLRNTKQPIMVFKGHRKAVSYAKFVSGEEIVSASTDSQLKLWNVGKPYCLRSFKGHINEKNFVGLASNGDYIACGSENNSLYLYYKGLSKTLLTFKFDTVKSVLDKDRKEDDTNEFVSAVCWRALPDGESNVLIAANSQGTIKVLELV

Row | Variant | effect of a mutation on the interaction
1 | S276A;S282D;Y283F | increasing interaction strength
2 | S276D;S282D;Y283F | increasing interaction strength
3 | S276D;Y283F | increasing interaction strength

Now from value to variant:

Row | effect of a mutation on the interaction | Variant
4 | increasing interaction strength | S282A;Y283F
5 | increasing interaction strength | Y283F
6 | increasing interaction strength | S282D;Y283F

Variants of: B1
Conditions: with cop1_human COP1, Q8NHY2
Remark: another data set of the same source
Target sequence in this assay (Q8NHY2 whole entry): as above

Row | effect of a mutation on the interaction | Variant
7 | disrupting interaction strength | V280A;P281A

Variants of: B2
Conditions: with cop1_human COP1, Q8NHY2
Target sequence in this assay (Q8NHY2 whole entry): as above

Row | effect of a mutation on the interaction | Variant
8 | decreasing interaction strength | V52A;P53A
9 | decreasing interaction strength | V308A;P309A
10 | disrupting interaction strength | V52A;P53A;V308A;P309A
